The text below walks through data of US11471509B2, “Compositions and methods relating to myomaker-induced muscle cell fusion” (The Board of Regents of the University of Texas System, priority 2013, dated 2022).

For assay [1], the system named is 10T1/2 fibroblasts mixed with C2C12 cells. The assay can be described thus: Cell mixing: infected 10T1/2 fibroblasts with C2C12 myoblasts. The format is cell-based. The protocol:
WT myoblasts were mixed with either Myomaker+/− or Myomaker−/− myoblasts at equal ratios (approximately 1×10^5 cells per genotype), plated on a well of a laminin coated 12-well plate, and induced to differentiate the next day. 10T1/2 fibroblasts were infected with either GFP- and empty-retrovirus or GFP- and Myomaker-retrovirus for 18 h. After infection, cells were washed multiple times and then trypsinized, and mixed with C2C12 myoblasts at a 1:1 ratio (1×10^5 of each cell type) and plated on one well of a 6 well plate in differentiation media. GFP and myosin expression was analyzed 4 days after differentiation. […]
Each histological analysis of embryonic skeletal muscle was performed on four samples per genotype. The differentiation index was calculated as the percentage of nuclei in myosin-positive cells. The fusion index was calculated as the percentage of nuclei contained in myosin-positive myotubes. […] To quantitate fusion between WT myoblasts and either Myomaker+/− or Myomaker−/− myoblasts, the inventors calculated the percentage of LacZ+ myotubes containing ≥3 nuclei. To quantitate fusion between fibroblasts and myoblasts, the inventors calculated the percentage of GFP+ myosin+ cells or the percentage of BrdU+ myotube nuclei. For each quantitation, at least 3 independent experiments were performed in duplicate and at least 6 random fields were imaged per sample. […]

For another assay, the system named is C2C12 myoblasts. Put plainly: Retroviral over-expression in C2C12 cells, myoblast fusion. The class given is cell-based. The conditions noted are these: 4 days of differentiation.

B1: Myomaker: muscle-specific membrane protein of 221 residues, expressed from pBabe-X retrovirus (protein, UniProt Q9D1N4 1-221, looked up)
Protein myomaker: MGTVVAKLLLPTLSSLAFLPTVSIATKRRFYMEAMVYLFTMFFVAFSHACDGPGLSVLCFMRRDILEYFSIYGTALSMWVSLMALADFDEPQRSTFTMLGVLTIAVRTFHDRWGYGVYSGPIGTATLIIAVKWLKKMKEKKGLYPDKSIYTQQIGPGLCFGALALMLRFFFEEWDYTYVHSFYHCALAMSFVLLLPKVNKKAGNAGAPAKLTFSTLCCTCV
For B1, the “fusion of infected fibroblasts with C2C12 cells” value in assay [1] (10T1/2 fibroblasts infected with GFP and Myomaker virus, mixed 1:1 with C2C12, 4 days differentiation) is “robustly fused with C2C12 cells”. Also, in assay [1] (fibroblasts expressing Myomaker, no myoblasts), the “fusion of fibroblasts in the absence of myoblasts” value is reported as “not sufficient to induce fusion of fibroblasts”. For the same molecule, the “myoblast fusion after forced expression” value in the assay with C2C12 myoblasts was “dramatic increase in fusion”.

B2: Tmem8b: closest relative of Myomaker/Tmem8c, not muscle-specific (protein, UniProt B1AWJ5 1-472, looked up)
Transmembrane protein 8B: MNMPQSLGTQPLPPEPPSLGTPIEGSGAIAPTEHCWPVRPTLRNELDTFSVHFYIFFGPSVALPPERPAVFALRLLPVLDSGGVLSLELQLNASSLRQENVTVFGCLTHEVPLSLGDAAVTCSKESLAGFLLSVSATSRVARLRIPFPQTGTWFLTLRSLCGVGPRFVRCRNATAEVRLRTFLSPCVDDCGPYGQCKLLRTHNYLYAACECKAGWRGWGCTDSADALTYGFQLLSTLLLCLSNLMFLPPVVLAIRSRYVLEAAVYTFTMFFSTFYHACDQPGIVVFCIMDYDVLQFCDFLGSLMSVWVTVIAMARLQPVIKQVLYLLGAMLLSMALQLDRHGLWNLLGPSLFALGILATAWTVRSVRRRHCYPPTWRRWLFYLCPGSLIAGSAVLLYAFVETRDNYFYIHSIWHMLIAGSVGFLLPPRAKTDRRVPSGARARGCGYQLCINEQEELGLVGPGGTTVSSICVS
As for B2, the “myoblast fusion after forced expression” value in the assay on C2C12 myoblasts is on record as “did not promote fusion”.
